For the experiment, the target named is soluble H-2K^b (K^bsol), heterodimer of truncated K^b heavy chain and murine β-2 microglobulin, purified empty from Drosophila cells (murine) (UniProt P01901). Briefly: competitive RIA against [^125I]VSV-8 on K^bsol, P30 gel filtration, 23° C.

The substance OVA-10C (peptide) returned a Kd of 14 nM. For OVA-9C (peptide) the value was 11 nM; for OVA-10N (peptide), 280 nM. Consider OVA-8 (peptide), for which the Kd was found to be 4.1 nM.

These data come from patent US20030077318A1.
